Experimental data: article PMC6555848, “Structural and functional consequences of the STAT5B^N642H driver mutation” (Nature Communications, 2019)

B1: human STAT5B core fragment (A136-Q703) (domain or fragment, UniProt P51692 136-703, looked up)
chain: AMSQKHLQINQTFEELRLVTQDTENELKKLQQTQEYFIIQYQESLRIQAQFGPLAQLSPQERLSRETALQQKQVSLEAWLQREAQTLQQYRVELAEKHQKTLQLLRKQQTIILDDELIQWKRRQQLAGNGGPPEGSLDVLQSWCEKLAEIIWQNRQQIRRAEHLCQQLPIPGPVEEMLAEVNATITDIISALVTSTFIIEKQPPQVLKTQTKFAATVRLLVGGKLNVHMNPPQVKATIISEQQAKSLLKNENTRNDYSGEILNNCCVMEYHQATGTLSAHFRNMSLKRIKRSDRRGAESVTEEKFTILFESQFSVGGNELVFQVKTLSLPVVVIVHGSQDNNATATVLWDNAFAEPGRVPFAVPDKVLWPQLCEALNMKFKAEVQSNRGLTKENLVFLAQKLFNNSSSHLEDYSGLSVSWSQFNRENLPGRNYTFWQWFDGVMEVLKKHLKPHWNDGAILGFVNKQQAHDLLINKPDGTFLLRFSDSEIGGITIAWKFDSQERMFWNLMPFTTRDFSIRSLADRLGDLNYLIYVFPDRPKDEVYSKYYTPVPCESATAKAVDGYVKPQ
notes: human STAT5B core fragment A136-Q703 (printed once as S136-Q703), unphosphorylated; Two molecules per asymmetric unit; described as the unphosphorylated dimer; also called unphosphorylated STAT core fragment; source: E. coli BL21 (DE3) RILP, purified (Ni-NTA, Ulp1 cleavage, SEC); not shown: His, N-terminal, cleaved; SUMO, N-terminal, cleaved
B2: STAT5B^N642H core fragment (A136-Q703) (domain or fragment, human, UniProt P51692 136-703, looked up)
chain: AMSQKHLQINQTFEELRLVTQDTENELKKLQQTQEYFIIQYQESLRIQAQFGPLAQLSPQERLSRETALQQKQVSLEAWLQREAQTLQQYRVELAEKHQKTLQLLRKQQTIILDDELIQWKRRQQLAGNGGPPEGSLDVLQSWCEKLAEIIWQNRQQIRRAEHLCQQLPIPGPVEEMLAEVNATITDIISALVTSTFIIEKQPPQVLKTQTKFAATVRLLVGGKLNVHMNPPQVKATIISEQQAKSLLKNENTRNDYSGEILNNCCVMEYHQATGTLSAHFRNMSLKRIKRSDRRGAESVTEEKFTILFESQFSVGGNELVFQVKTLSLPVVVIVHGSQDNNATATVLWDNAFAEPGRVPFAVPDKVLWPQLCEALNMKFKAEVQSNRGLTKENLVFLAQKLFNNSSSHLEDYSGLSVSWSQFNRENLPGRNYTFWQWFDGVMEVLKKHLKPHWNDGAILGFVNKQQAHDLLINKPDGTFLLRFSDSEIGGITIAWKFDSQERMFWHLMPFTTRDFSIRSLADRLGDLNYLIYVFPDRPKDEVYSKYYTPVPCESATAKAVDGYVKPQ
notes: human STAT5B core fragment A136-Q703 with the patient-derived mutation N642H; Two molecules per asymmetric unit; described as the unphosphorylated dimer; source: E. coli BL21 (DE3) RILP, purified (Ni-NTA, Ulp1 cleavage, SEC); not shown: His, N-terminal, cleaved; SUMO, N-terminal, cleaved
B3: full-length human STAT5B (M1-S787) (natural protein, UniProt P51692 1-787, looked up)
chain: MAVWIQAQQLQGEALHQMQALYGQHFPIEVRHYLSQWIESQAWDSVDLDNPQENIKATQLLEGLVQELQKKAEHQVGEDGFLLKIKLGHYATQLQNTYDRCPMELVRCIRHILYNEQRLVREANNGSSPAGSLADAMSQKHLQINQTFEELRLVTQDTENELKKLQQTQEYFIIQYQESLRIQAQFGPLAQLSPQERLSRETALQQKQVSLEAWLQREAQTLQQYRVELAEKHQKTLQLLRKQQTIILDDELIQWKRRQQLAGNGGPPEGSLDVLQSWCEKLAEIIWQNRQQIRRAEHLCQQLPIPGPVEEMLAEVNATITDIISALVTSTFIIEKQPPQVLKTQTKFAATVRLLVGGKLNVHMNPPQVKATIISEQQAKSLLKNENTRNDYSGEILNNCCVMEYHQATGTLSAHFRNMSLKRIKRSDRRGAESVTEEKFTILFESQFSVGGNELVFQVKTLSLPVVVIVHGSQDNNATATVLWDNAFAEPGRVPFAVPDKVLWPQLCEALNMKFKAEVQSNRGLTKENLVFLAQKLFNNSSSHLEDYSGLSVSWSQFNRENLPGRNYTFWQWFDGVMEVLKKHLKPHWNDGAILGFVNKQQAHDLLINKPDGTFLLRFSDSEIGGITIAWKFDSQERMFWNLMPFTTRDFSIRSLADRLGDLNYLIYVFPDRPKDEVYSKYYTPVPCESATAKAVDGYVKPQIKQVVPEFVNASADAGGGSATYMDQAPSPAVCPQAHYNMYPQNPDSVLDTDGDFDLEDTMDVARRVEELLGRPMDSQWIPHAQS
notes: human STAT5B, full length M1-S787, gene NCBI NM_012448.3, unphosphorylated; also called wild-type STAT5B; wild-type; source: E. coli BL21 (DE3) RILP, purified (Ni-NTA, Ulp1 cleavage, SEC); not shown: His, N-terminal, cleaved; SUMO, N-terminal, cleaved

What was measured:
[1] = molecular target: the molecule itself; test: crystal structure; unphosphorylated core fragment A136-Q703; two molecules per asymmetric unit; STAT5B 3.29 Å, STAT5B^N642H 3.21 Å
[2] = molecular target: the molecule itself; test: dynamic light scattering; 50 µM protein in 20 mM HEPES pH 7.4, 150 mM NaCl, 2% glycerol; unphosphorylated protein, self-association

Protein | binding result [1] | stoichiometry N [2]
B1 | binds | 
B2 | binds | 
B3 |  | 2
